Experiment in all cases: cell_activity; MRC5 cells, 2 ng mRNA; also active in CHO GFP reporter
Conditions in all cases: tags: N-terminal SV40 NLS

One series addresses T1, DMD 35-36x.81 (synthetic construct).
T1 chain: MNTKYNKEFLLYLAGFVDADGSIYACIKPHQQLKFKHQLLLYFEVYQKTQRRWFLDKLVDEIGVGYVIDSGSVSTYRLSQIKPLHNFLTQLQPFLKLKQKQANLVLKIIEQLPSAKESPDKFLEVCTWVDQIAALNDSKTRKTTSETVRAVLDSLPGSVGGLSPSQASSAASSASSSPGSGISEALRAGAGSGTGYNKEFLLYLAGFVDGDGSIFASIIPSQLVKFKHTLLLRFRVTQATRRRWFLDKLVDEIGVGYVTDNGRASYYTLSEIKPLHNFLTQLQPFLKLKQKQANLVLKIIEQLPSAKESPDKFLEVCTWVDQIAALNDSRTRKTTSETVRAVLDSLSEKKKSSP
The protocol: (§1) In these experiments, 1e6 MRC5 cells were electroporated with 2 ng or 100 ng mRNA encoding DMD meganucleases (DMD 19-20x.13, DMD 19-20x.87, DMD 29-30x.18, DMD 29-30x.40, DMD 35-36x.63, DMD 35-36x.81, DMD 37-38x.15, DMD 37-38x.66, or DMD 37-38x.79), or GFP using the Lonza Amaxa 4D system. Cells were collected at two days post electroporation for gDNA preparation and evaluated for transfection efficiency using a Beckman Coulter CytoFlex S cytometer. Transfection efficiency exceeded 90%. Additional time points were collected at five- and eight-days post electroporation for gDNA extractions. gDNA was prepared using the Macherey Nagel NucleoSpin Blood QuickPure kit.

The target of the next series is T2, DMD 35-36x.63 (synthetic construct).
T2 chain: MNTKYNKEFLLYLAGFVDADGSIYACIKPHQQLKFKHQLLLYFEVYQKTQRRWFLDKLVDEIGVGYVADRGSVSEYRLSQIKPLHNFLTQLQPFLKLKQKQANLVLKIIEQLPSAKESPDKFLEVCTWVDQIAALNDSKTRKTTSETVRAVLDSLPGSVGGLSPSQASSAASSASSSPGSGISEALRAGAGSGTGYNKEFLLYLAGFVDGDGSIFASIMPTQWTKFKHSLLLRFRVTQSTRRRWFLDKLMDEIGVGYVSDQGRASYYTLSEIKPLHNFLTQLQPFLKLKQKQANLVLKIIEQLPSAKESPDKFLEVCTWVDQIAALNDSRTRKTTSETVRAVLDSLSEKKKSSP
The protocol: as §1

A further series addresses T3, DMD 37-38x.66 (synthetic construct).
T3 chain: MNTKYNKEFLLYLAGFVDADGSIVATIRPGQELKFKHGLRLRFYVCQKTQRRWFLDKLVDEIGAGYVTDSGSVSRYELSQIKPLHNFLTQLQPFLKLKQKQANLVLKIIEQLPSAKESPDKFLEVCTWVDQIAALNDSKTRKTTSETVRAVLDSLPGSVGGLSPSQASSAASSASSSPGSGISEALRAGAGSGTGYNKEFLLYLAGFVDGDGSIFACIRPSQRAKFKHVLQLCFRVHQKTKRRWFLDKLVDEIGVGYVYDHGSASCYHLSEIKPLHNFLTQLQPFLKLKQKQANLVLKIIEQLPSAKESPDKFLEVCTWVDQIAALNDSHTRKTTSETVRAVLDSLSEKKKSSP
On the procedure:
as §1

A further series has as its target T4, DMD 37-38x.79 (synthetic construct).
T4 chain: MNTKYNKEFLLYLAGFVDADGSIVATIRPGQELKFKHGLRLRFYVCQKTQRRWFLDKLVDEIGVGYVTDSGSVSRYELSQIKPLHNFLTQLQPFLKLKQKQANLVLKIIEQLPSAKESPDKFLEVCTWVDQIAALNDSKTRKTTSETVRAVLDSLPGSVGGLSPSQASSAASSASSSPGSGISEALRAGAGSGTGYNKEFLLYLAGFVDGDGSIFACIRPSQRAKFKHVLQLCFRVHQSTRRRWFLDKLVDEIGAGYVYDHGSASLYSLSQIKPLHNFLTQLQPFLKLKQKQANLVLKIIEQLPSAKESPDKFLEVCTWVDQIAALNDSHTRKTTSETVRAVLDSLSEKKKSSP
The protocol:
as §1

In the next series the target is T5, DMD 37-38x.15 (synthetic construct).
T5 chain: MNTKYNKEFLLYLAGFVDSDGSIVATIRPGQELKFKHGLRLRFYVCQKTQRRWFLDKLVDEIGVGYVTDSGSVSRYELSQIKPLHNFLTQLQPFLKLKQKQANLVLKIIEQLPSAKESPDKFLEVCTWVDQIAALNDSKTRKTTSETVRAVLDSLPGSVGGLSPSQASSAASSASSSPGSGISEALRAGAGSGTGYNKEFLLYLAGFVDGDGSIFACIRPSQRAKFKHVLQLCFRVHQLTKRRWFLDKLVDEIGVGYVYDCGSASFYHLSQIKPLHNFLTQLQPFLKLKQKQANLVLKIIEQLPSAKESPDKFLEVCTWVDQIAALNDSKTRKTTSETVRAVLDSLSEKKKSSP
On the procedure:
as §1

Bounds are passed on as bounds.

B1: DMD 35-36 recognition sequence (dsDNA)
DNA 1: CTACATGGTGTATCTGACTAAG
DNA 2: CTTAGTCAGATACACCATGTAG
For B1, the activity in the series with DMD 35-36x.81 and with DMD 35-36x.63 was more than 30 % indel throughout.

B2: DMD 37-38 recognition sequence (dsDNA)
DNA 1: CTGGCCGAAGTATAGGAATATG
DNA 2: CATATTCCTATACTTCGGCCAG
B2: the activity in the series with DMD 37-38x.66, with DMD 37-38x.79 and with DMD 37-38x.15 was more than 30 % indel throughout.

The values are drawn from US20250034536, “POLYNUCLEOTIDES ENCODING ENGINEERED MEGANUCLEASES HAVING SPECIFICITY FOR RECOGNITION SEQUENCES IN THE DYSTROPHIN GENE” (Precision BioSciences, Inc., published 2025).
